According to patent US20170037124A1 (Regeneron, published 2017):

T1: human ANGPTL8 expressed with C-terminal mouse IgG2a Fc tag (hANGPTL8-mFc; SEQ ID NO: 340) (human)
T1 construct: also called Angiopoietin-like protein 8
T1 chain: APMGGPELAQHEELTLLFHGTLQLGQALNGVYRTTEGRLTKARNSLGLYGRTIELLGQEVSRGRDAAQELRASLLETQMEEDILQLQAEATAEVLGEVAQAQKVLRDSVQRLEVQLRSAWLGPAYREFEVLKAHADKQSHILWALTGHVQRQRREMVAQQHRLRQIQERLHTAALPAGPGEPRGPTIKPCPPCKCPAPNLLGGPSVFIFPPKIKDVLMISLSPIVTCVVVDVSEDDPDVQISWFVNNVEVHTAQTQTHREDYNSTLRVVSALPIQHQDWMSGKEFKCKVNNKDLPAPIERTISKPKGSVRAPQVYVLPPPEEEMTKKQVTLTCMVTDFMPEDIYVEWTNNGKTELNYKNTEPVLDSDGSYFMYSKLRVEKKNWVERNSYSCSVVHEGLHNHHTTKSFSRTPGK

T2: monkey ANGPTL8 expressed with C-terminal mouse IgG2a Fc tag (MfANGPTL8-mFc; SEQ ID NO: 341) (cynomolgus monkey)
T2 construct: also called cynomolgus monkey ANGPTL8
T2 chain: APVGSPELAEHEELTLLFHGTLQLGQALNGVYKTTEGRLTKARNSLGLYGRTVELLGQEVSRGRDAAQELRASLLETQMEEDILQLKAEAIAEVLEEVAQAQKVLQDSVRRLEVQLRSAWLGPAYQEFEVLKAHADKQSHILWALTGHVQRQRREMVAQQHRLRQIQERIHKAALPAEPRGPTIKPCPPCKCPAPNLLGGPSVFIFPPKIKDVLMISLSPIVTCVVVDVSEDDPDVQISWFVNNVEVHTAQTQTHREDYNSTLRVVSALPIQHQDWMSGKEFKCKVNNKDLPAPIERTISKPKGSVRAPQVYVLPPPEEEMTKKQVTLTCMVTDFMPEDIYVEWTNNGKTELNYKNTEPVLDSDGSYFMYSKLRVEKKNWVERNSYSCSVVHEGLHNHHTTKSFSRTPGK

T3: human ANGPTL8 peptide (hANGPTL8 peptide, SEQ ID NO: 337) (human)
T3 construct: also called N-terminal region ANGPTL8 peptide
T3 peptide: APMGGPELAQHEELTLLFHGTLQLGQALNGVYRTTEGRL

T4: peptide from the N-terminal coiled-coil region of human ANGPTL4 (hANGPTL4 peptide, SEQ ID NO: 339) (human)
T4 peptide: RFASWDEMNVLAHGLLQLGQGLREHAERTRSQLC

T5: peptide from the N-terminal coiled-coil region of human ANGPTL3 (hANGPTL3 peptide, SEQ ID NO: 338) (human)
T5 construct: also called hANGPTL3 shift peptide
T5 peptide: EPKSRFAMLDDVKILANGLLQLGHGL

B1: H4H15335P (antibody, human IgG4, V domains shown)
VH: QVQLVESGGGVVQPGRSLRLSCAASGFTFNNYGIHWVRQAPGKGLEWVAVISYDESNKYYADSVKGRFTISRDNSKNTLYLQMNSLRAEDTAVYYCAKDIRIAARRHYYYYGMDVWGQGTTVTVSS
VL: DIQMTQSPSSVSASVGDRVTITCRASQGISRWLAWYQQKPGKAPKLLIYAASSLESGVPARFSGSGSGTDFTLTISSLQPEDFATYYCQQANSFPITFGPGTKVDIK
notes: H4H prefix: human IgG4 Fc
B2: H4H15363P2 (antibody, human IgG4, V domains shown)
VH: EVQLVESGGGLVQPGGSLRLSCAASGFTFSNYAMSWVRQVPGKGLEWVSTISGSGGSTYYADSVKGRFTISRDNSKNSLYLQMNSLRAEDTAVYYCAKLVRGVIGWFDPWGQGTLVTVSS
VL: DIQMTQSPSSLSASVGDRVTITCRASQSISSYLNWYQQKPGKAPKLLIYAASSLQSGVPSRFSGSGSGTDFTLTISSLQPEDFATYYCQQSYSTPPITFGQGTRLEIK
notes: H4H prefix: human IgG4 Fc
B3: H4H15347P (antibody, human IgG4, V domains shown)
VH: EVQLVESGGGLVQPGGSLRLSCAASGFTFRNYAMNWARQAPGKGLEWVSGITGSGGATYYADSVKGRFTISRENSKNTLFLQMDTLRAEDTAVYYCAKDRRYFPTSGGPQWGQGTLVTVSS
VL: DIVMTQSPLSLPVTPGEPASISCRSSRSLLHSSGYNYLDWYLQKPGQSPQLLLYLGSNRASGVPDRFSGSGSGTYFTLKISRVDAEDVGVYYCMQALQTPWTFGQGTKVEIK
notes: H4H prefix: human IgG4 Fc
B4: H4H15361P2 (antibody, human IgG4, V domains shown)
VH: EVQLVESGGGLVQPGRSLRLSCTASGFSFGDNAMGWVRQAPGKGLEWVSFIRRKASGGTTEYAASVKGRFTISRDDSKSIAYLQMNSLKTEDTGVYYCTRGGAVYGYWGQGTLVTVSS
VL: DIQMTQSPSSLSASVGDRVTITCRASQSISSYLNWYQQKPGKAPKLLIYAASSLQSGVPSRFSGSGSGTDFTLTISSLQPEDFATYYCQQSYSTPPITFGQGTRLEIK
notes: H4H prefix: human IgG4 Fc
B5: H4H15355P2 (antibody, human IgG4, V domains shown)
VH: QVQLVESGGGVVQPGRSLRLSCAASGFTFTNYAMHWVRQAPGKGLEWVAVISYDGSHTYFADSVKGRFTMSRDNSKNTISLQMNSLRPEDTAVYFCAGGGATTWFYFYGLDVWGQGTTVTVSS
VL: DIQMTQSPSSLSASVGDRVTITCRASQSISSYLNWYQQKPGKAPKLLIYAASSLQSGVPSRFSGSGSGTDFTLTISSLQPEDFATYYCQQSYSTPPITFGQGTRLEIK
notes: H4H prefix: human IgG4 Fc

Target: T1, human ANGPTL8 expressed with C-terminal …
Experiment: BLI Octet, captured antigen, 100 nM mAb, 25C
Procedure: (§1) Binding of ANGPTL8 antibodies to human and monkey ANGPTL8 proteins was investigated using Bio-layer Interferometry with an Octet HTX biosensor platform (ForteBio, A Division of Pall Life Sciences). All experiments were performed at 25° C. in 10 mM HEPES pH 7.4, 150 mM NaCl, 0.05% v/v Surfactant Tween-20, and 1 mg/ml BSA with the reaction multiwell plate agitated at 1000 rpm. Approximately 1.6 nm of human ANGPTL8 produced with a C-terminal mouse IgG2a Fc tag (hANGPTL8-mFc; SEQ ID NO: 340) or cynomolgus monkey ANGPTL8 produced with a C-terminal mouse IgG2a Fc tag (MfANGPTL8-mFc; SEQ ID NO: 341) was captured onto anti-mFc (AMC) Octet biosensors by submerging the sensors into wells containing 10 μg/mL of each protein for 4 minutes. Under the same conditions a negative control protein with the same mFc tag (hLDLR-mFc) was also coupled to the AMC sensor. All four sensors, […] and one blank, were then submerged into wells containing 100 nM of different ANGPTL8 monoclonal antibodies or an isotype control for 4 minutes.

mAb Binding Response (nm) | Binder
0.06 | B1
0.25 | B2
0.25 | B3
0.2 | B4
0.15 | B5

Target: T2, monkey ANGPTL8 expressed with …
Experiment: BLI Octet, captured antigen, 100 nM mAb, 25C
Procedure: as §1

mAb Binding Response (nm) | Binder
0.04 | B1
0.26 | B2
0.29 | B3
0.21 | B4
0.13 | B5

target: T6, anti-mFc (AMC) Octet biosensor, blank; experiment: BLI Octet, blank AMC sensor, 100 nM mAb, 25C
T6 construct: Sensor without captured protein, used as blank; also called Blank AMC Sensor
Procedure: as §1

mAb Binding Response (nm) | Binder
0.01 | B1
0.02 | B2
0.03 | B3
0.02 | B4
0.03 | B5

Target: T3, human ANGPTL8 peptide (hANGPTL8 …)
Experiment: SPR, captured mAb, 500 nM peptide, 25C
Procedure: (§2) The assay utilized a format where ANGPTL8 antibodies were captured on the sensor surface and peptides were injected over the antibody surface. Peptides from the N-terminal coiled-coil region of human ANGPTL3 (hANGPTL3 peptide, SEQ ID NO: 338) and human ANGPTL4 (hANGPTL4 peptide, SEQ ID NO: 339) were also included as controls. Also included was a control antibody (H4H268P from US2011/0159015A1) that binds to the ANGPTL4 peptide and a negative isotype control antibody. All binding studies were performed in 10 mM HEPES pH 7.4, 150 mM NaCl, 3 mM EDTA, and 0.05% v/v Surfactant Tween-20 (HBS-ET running buffer) at 25° C. The HCA sensor surface was derivatized via amine coupling to a monoclonal mouse anti-human Fc antibody (GE, # BR-1008-39), and to this surface was captured approximately 1000 RU of each ANGPTL8 antibody or control antibody. Peptide stock solutions were diluted in HBS-ET running buffer to 500 nM and injected over the antibody-captured surfaces for 4 minutes at a flow rate of 30 μL/minute followed by the dissociation of bound peptide in HBS-ET running buffer for 10 minutes.
(§3) Dissociative half-lives (t½) were calculated from kd as: […]

500 nM hANGPTL8 peptide Bound (RU) | Binder | binding result
0 | B1 | no binding (tested: <9 RU at 500 nM peptide)
0 | B2 | no binding (tested: <9 RU at 500 nM peptide)
0 | B3 | no binding (tested: <9 RU at 500 nM peptide)
4 | B4 | no binding (tested: <9 RU at 500 nM peptide)
0 | B5 | no binding (tested: <9 RU at 500 nM peptide)

Target: T4, peptide from the N-terminal coiled-coil …
Experiment: SPR, captured mAb, 500 nM peptide, 25C
Procedure: as §2, §3

500 nM hAngPTL4 peptide Bound (RU) | Binder | binding result
1 | B1 | no binding (tested: <9 RU at 500 nM peptide)
0 | B2 | no binding (tested: <9 RU at 500 nM peptide)
0 | B3 | no binding (tested: <9 RU at 500 nM peptide)
0 | B4 | no binding (tested: <9 RU at 500 nM peptide)
0 | B5 | no binding (tested: <9 RU at 500 nM peptide)

Target: T5, peptide from the N-terminal coiled-coil …
Experiment: SPR, captured mAb, 500 nM peptide, 25C
Procedure: as §2, §3

500 nM hANGPTL3 peptide Bound (RU) | Binder | binding result
-1 | B1 | 
0 | B2 | no binding (tested: <9 RU at 500 nM peptide)
-1 | B3 | 
0 | B4 | no binding (tested: <9 RU at 500 nM peptide)
0 | B5 | no binding (tested: <9 RU at 500 nM peptide)
